Test results published in PMC3570234 (Molecular pharmaceutics, 2012).

Molecular target: the molecule itself
Experiment: MALDI-ToF MS

B1: Superoxide dismutase 1 (SOD1) from bovine erythrocytes (enzyme)
chain: not shown
binding result: binds
